Target: the molecule itself
Assay: crystal structure

B1: secreted (extracellular) catalase-peroxidase from Magnaporthe grisea, wild type (enzyme)
chain: QGCPFAKRDGTVDSSLPQKRADAPETTTFGRCAVKSNQAGGGTRSHDWWPCQLRLDVLRQFQPSQNPLGGDFDYAEAFQSLDYEAVKKDIAALMTESQDWWPADFGNYGGLFVRMAWHSAGTYRAMDGRGGGGMGQQRFAPLNSWPDNQNLDKARRLIWPIKQKYGNKISWADLMLLTGNVALENMGFKTLGFGGGRADTWQSDEAVYWGAETTFVPQGNDVRYNNSVDINARADKLEKPLAATHMGLIYVNPEGPNGTPDPAASAKDIREAFGRMGMNDTETVALIAGGHAFGKTHGAVKGSNIGPAPEAADLGMQGLGWHNSVGDGNGPNQMTSGLEVIWTKTPTKWSNGYLESLINNNWTLVESPAGAHQWEAVNGTVDYPDPFDKTKFRKATMLTSDLALINDPEYLKISQRWLEHPEELADAFAKAWFKLLHRDLGPTTRYLGPEVPKESFIWQDPLPAREGDLIDDADVDKLKAAILSTDGLDVSKLASTAMACATTYRNSDKRGGCNGARIALEPQRNWVSNNPTQLSAVLDALKKVQSDFNGSNGNKKVSLADLIVLGGTAAVEKAAKDAGVDIKVPFSAGRVDATQEQTDVTQFSYLEPQADGFRNYGRGTARARTEEIMVDKASQLTLTPPELTVLVGGMRALGANYDGSDVGVFTANKGKLTPDFFVNLVDMNIAWTASGADGESWVGTDRKSRSEKYKGSRADLVFGSHAELRAIAEVYAENGNQEKFVKDFVAAWTKVMNLDRFDLKVKK
stoichiometry N: 2
